Data published in article PMC11210195 (Frontiers in Immunology, 2024).

Assays:
cytokine-Fc Fusion Y436A [1] = biological target: cytokine-Fc Fusion Y436A (human); assay: SPR; cytokine-Fc Fusion constructs captured via anti-PGLALA F(ab')2 fragment (35-40 RU); PRYSPRY injected, two-fold series; 25°C, HBS-EP+ pH 7.4; 1:1 fit; conditions: both partners purified
cytokine-Fc Fusion Y436A [2] = biological target: cytokine-Fc Fusion Y436A (human); assay: SPR; cytokine-Fc Fusion constructs captured via anti-PGLALA F(ab')2 fragment at low density; TRIM21-CC-PS injected; 25°C, HBS-EP+; apparent (avidity) constants; conditions: both partners purified
[3] = biological target: the molecule itself; assay: SEC-MALS; TRIM21-CC-PS alone, 1 mg/mL, 50 µg injected, Superdex200 Increase 10/300 GL, PBS pH 7.4

Binder	fold change of off rate against WT (cytokine-Fc Fusion Y436A [1]) [fold]	fold change of on rate against WT (cytokine-Fc Fusion Y436A [1]) [fold]	fold decrease of affinity against mAb1 Fc WT (cytokine-Fc Fusion Y436A [1]) [fold]	t1/2 of dissociation (cytokine-Fc Fusion Y436A [1]) [s]	avidity enhancement (K_(D,AFFINITY)/K_(D,AVIDITY)) (cytokine-Fc Fusion Y436A [2]) [fold]	fold weaker against the WT avidity (cytokine-Fc Fusion Y436A [2]) [fold]	stoichiometry N [3]
TRIM21 PRYSPRY domain (domain or fragment, human, UniProt P19474-1 277-475, looked up, biotinylated where it was captured via monovalent streptavidin, human TRIM21 (Ro52, RNF81), PRYSPRY domain, amino acids 277 to 475 of isoform 1; also called PS; TRIM21 PRYSPRY variant; source: E. coli BL21 DE3, purified (Ni-NTA, Superdex S-200 gel filtration) by Proteros Biostructures; not shown: His-Avi-Tag (via a (4GS)1 linker), C-terminal, kept) GLKKMLRTCAVHITLDPDTANPWLILSEDRRQVRLGDTQQSIPGNEERFDSYPMVLGAQHFHSGKHYWEVDVTGKEAWDLGVCRDSVRRKGHFLLSSKSGFWTIWLWNKQKYEAGTYPQTPLHLQVPPCQVGIFLDYEAGMVSFYNITDHGSLIYSFSECAFTGPLRPFFSPGFNDGGKNTAPLTLCPLNIGSQGSTDY	23	8	180	0.3			
TRIM21-coiled-coil-PRYSPRY (TRIM21-CC-PS) (domain or fragment, human, UniProt P19474-1 128-475, looked up, biotinylated where it was captured via monovalent streptavidin, human TRIM21 (Ro52, RNF81), coiled-coil and PRYSPRY domains, amino acids 128 to 475 of isoform 1; also called PRYSPRY-coiled-coil variant; source: E. coli BL21 DE3, purified (Ni-NTA, Superdex S-200 gel filtration) by Proteros Biostructures; not shown: His-Avi-Tag (via a (4GS)1 linker), C-terminal, kept) LEEAAQEYQEKLQVALGELRRKQELAEKLEVEIAIKRADWKKTVETQKSRIHAEFVQQKNFLVEEEQRQLQELEKDEREQLRILGEKEAKLAQQSQALQELISELDRRCHSSALELLQEVIIVLERSESWNLKDLDITSPELRSVCHVPGLKKMLRTCAVHITLDPDTANPWLILSEDRRQVRLGDTQQSIPGNEERFDSYPMVLGAQHFHSGKHYWEVDVTGKEAWDLGVCRDSVRRKGHFLLSSKSGFWTIWLWNKQKYEAGTYPQTPLHLQVPPCQVGIFLDYEAGMVSFYNITDHGSLIYSFSECAFTGPLRPFFSPGFNDGGKNTAPLTLCPLNIGSQGSTDY					14	766	2
